This passage reports Kd results from paper PMC5849709, “Structure-based design of chimeric antigens for multivalent protein vaccines” (Nature Communications, 2018).

What all share (assay): SPR
Assay [1] concerns the target fHbp^V1.1:PorA^294/P1.16 (N. meningitidis).
For assay [2], the target named is fHbp^V1.1:PorA^117/P1.16 (N. meningitidis) (UniProt Q9JXV4).
In assay [3] the target is fHbp^V1.1:PorA^309/P1.16 (N. meningitidis).
In assay [4] the target is fHbp^V1.1:PorA^151/P1.16 (N. meningitidis) (UniProt Q9JXV4).
For assay [5], the target named is fHbp^V1.1:PorA^267/P1.16 (N. meningitidis) (UniProt Q9JXV4).
For assay [6], the target named is T1, factor H binding protein (fHbp) peptide V1.1, N-terminally truncated, soluble (N. meningitidis, UniProt Q9JXV4 25-274).
T1 sequence: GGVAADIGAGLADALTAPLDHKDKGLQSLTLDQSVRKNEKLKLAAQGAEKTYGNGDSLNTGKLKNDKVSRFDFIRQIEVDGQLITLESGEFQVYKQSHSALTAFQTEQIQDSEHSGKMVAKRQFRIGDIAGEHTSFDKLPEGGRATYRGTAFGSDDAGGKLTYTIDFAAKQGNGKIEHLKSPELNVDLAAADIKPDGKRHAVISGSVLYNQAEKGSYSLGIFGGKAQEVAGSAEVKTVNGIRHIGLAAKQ
Conditions: both partners purified.

For “domains 6 and 7 of human complement factor H (CFH6/7) (from UniProt P08603 321-444) (domain or fragment)”, the Kd in assay [1] was 2.7 nM; in assay [2], 2.3 nM; in assay [3], 5.5 nM; in assay [4] it was 2.3 nM; in assay [5], 28 nM.

B1: domains 6 and 7 of human complement factor H (CFH6/7) (domain or fragment, UniProt P08603 321-444, looked up)
chain: TLKPCDYPDIKHGGLYHENMRRPYFPVAVGKYYSYYCDEHFETPSGSYWDHIHCTQDGWSPAVPCLRKCYFPYLENGYNQNYGRKFVQGKSIDVACHPGYALPKAQTTVTCMENGWSPTPRCIR
The molecule B1 displayed a Kd in assay [6] of 3.6 ± 0.4 nM.
